Reference: publication PMC4436786
Several values for one entry are separate records, joined by “and”; a condition that tells them apart may be missing. Equal entries are not always repeated. One block for each substance: values may come before it.

Assays:
[1] = target: AtSfh5 nodulin (soluble, recombinant) (Arabidopsis thaliana); assay: SEC
[2] = target: AtSfh8 nodulin (soluble, recombinant) (Arabidopsis thaliana); assay: SEC
[3] = target: His-tagged AtSfh1 nodulin (recombinant, solubilized in 8 M urea) (Arabidopsis thaliana); assay: SDS-PAGE
[4] = target: His-tagged AtSfh3 nodulin (soluble, recombinant) (Arabidopsis thaliana); assay: SEC
[5] = target: mRFP-AtSfh1 nodulin (WT) (Arabidopsis thaliana); assay: SEC
[6] = target: mRFP-AtSfh1^E485P,Q534P nodulin (Arabidopsis thaliana); assay: SEC
[7] = target: myc-tagged AtSfh1 nodulin (Arabidopsis thaliana); assay: SEC

Sequence of His-tagged AtSfh3 nodulin (soluble, recombinant) (domain or fragment) (Q93ZE9 whole entry, the tested form may be a part): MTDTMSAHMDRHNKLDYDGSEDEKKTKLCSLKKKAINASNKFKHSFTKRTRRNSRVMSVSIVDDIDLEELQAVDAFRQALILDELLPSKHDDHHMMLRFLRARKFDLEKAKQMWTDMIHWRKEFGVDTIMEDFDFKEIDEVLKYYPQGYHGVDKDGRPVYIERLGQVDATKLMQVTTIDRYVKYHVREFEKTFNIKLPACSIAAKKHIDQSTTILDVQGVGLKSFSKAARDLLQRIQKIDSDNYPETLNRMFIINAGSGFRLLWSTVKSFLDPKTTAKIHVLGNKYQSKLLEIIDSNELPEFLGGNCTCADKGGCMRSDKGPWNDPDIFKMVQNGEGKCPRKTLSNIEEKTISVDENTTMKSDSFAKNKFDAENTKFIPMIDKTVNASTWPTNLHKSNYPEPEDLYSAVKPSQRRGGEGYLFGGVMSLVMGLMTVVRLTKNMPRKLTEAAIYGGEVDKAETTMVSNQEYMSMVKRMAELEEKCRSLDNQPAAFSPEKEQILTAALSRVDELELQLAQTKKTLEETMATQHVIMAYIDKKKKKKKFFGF
Sequence of His-tagged AtSfh1 nodulin (recombinant, solubilized in 8 M urea) (domain or fragment) (F4JLE5 whole entry, the tested form may be a part): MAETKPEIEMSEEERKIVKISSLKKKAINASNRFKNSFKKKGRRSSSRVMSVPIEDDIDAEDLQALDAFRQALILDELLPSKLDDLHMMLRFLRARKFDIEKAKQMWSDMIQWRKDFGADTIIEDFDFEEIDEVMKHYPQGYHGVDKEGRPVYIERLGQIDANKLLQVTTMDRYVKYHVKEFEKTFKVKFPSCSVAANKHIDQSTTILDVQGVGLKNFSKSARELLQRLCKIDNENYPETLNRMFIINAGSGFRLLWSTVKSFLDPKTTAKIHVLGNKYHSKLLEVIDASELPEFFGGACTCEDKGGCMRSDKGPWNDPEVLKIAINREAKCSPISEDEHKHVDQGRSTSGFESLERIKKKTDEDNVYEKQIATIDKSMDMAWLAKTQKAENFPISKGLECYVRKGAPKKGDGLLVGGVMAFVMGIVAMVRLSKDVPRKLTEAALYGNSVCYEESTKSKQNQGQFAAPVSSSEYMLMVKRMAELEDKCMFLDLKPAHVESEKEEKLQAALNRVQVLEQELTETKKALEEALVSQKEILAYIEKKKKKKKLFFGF
Sequence of AtSfh5 nodulin (soluble, recombinant) (domain or fragment) (Q8GXC6 whole entry, the tested form may be a part): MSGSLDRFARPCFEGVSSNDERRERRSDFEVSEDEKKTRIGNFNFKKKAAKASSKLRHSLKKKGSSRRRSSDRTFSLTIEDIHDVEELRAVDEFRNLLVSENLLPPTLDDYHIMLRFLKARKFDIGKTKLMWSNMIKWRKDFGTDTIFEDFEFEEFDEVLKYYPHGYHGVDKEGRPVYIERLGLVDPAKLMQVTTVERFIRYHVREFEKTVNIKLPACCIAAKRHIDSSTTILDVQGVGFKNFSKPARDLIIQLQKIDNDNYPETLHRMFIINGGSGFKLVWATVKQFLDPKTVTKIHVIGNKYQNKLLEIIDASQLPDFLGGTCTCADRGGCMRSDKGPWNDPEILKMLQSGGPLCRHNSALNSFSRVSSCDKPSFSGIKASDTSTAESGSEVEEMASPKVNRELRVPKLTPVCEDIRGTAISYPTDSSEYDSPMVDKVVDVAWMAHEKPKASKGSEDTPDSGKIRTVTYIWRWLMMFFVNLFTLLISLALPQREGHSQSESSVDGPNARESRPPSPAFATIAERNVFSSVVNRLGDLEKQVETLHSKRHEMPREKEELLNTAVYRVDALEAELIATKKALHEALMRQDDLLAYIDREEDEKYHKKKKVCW
Sequence of AtSfh8 nodulin (soluble, recombinant) (domain or fragment) (F4IHJ0 whole entry, the tested form may be a part): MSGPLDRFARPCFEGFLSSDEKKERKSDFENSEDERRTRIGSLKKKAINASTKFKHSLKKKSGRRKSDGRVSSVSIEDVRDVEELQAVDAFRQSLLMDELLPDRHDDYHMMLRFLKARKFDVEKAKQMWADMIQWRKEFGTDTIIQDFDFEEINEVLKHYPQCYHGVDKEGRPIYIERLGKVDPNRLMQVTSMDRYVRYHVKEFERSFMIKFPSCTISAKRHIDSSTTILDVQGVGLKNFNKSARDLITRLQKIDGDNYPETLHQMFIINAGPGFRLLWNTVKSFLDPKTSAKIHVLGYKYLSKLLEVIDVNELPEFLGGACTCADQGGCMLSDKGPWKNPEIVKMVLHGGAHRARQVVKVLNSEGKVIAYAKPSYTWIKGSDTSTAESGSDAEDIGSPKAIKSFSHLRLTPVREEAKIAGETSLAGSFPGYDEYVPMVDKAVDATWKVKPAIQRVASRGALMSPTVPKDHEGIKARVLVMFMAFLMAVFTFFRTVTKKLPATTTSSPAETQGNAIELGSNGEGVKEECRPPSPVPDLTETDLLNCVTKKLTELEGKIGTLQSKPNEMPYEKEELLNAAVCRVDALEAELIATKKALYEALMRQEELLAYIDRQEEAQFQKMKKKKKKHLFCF

stoichiometry N [1]: 6
Substance: AtSfh5 nodulin (soluble, recombinant) (domain or fragment)

stoichiometry N [2]: 6
Substance: AtSfh8 nodulin (soluble, recombinant) (domain or fragment)

stoichiometry N [3]: 8
Substance: His-tagged AtSfh1 nodulin (recombinant, solubilized in 8 M urea) (domain or fragment)

stoichiometry N [4]: 6
Substance: His-tagged AtSfh3 nodulin (soluble, recombinant) (domain or fragment)

stoichiometry N [5]: 4
Substance: mRFP-AtSfh1 nodulin (WT) (domain or fragment)

stoichiometry N [6]: 2
Substance: mRFP-AtSfh1^E485P,Q534P nodulin (domain or fragment)

stoichiometry N [7]: 6 and 8
Substance: myc-tagged AtSfh1 nodulin (domain or fragment)
